This note sets out measurements from publication PMC12455474, “Single‐Molecule Protein Profiling Using Nanopores and Dimeric Aptamer‐Modified DNA Carriers”.

In one series the target is PDGF-BB (human, UniProt P01127 82-190). Description: single-molecule nanopore (carrier dimerization, biphasic Hill fit); apparent sandwich Kd; 200 pM carrier; Carriers (200 pM total) incubated with protein at 37 °C for 2 h; nanopore measurement in 100 mM KCl, 10 mM Tris-EDTA pH 8.0, -300 mV. The following applies: protein: recombinant; chain copies: 2; 2 identical carriers per protein dimer; first 12 nt pair with carrier overhang.
Chain of PDGF-BB (P01127 82-190): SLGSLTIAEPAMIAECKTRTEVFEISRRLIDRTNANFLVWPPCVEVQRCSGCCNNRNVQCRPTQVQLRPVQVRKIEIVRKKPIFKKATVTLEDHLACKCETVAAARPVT

The target of another series is human alpha-thrombin (human, UniProt P00734;P00734 328-363;364-622). Description: single-molecule nanopore (carrier dimerization, biphasic Hill fit); apparent sandwich Kd; 100 pM of each carrier; hook effect at high thrombin; Carriers (200 pM total) incubated with protein at 37 °C for 2 h; nanopore measurement in 100 mM KCl, 10 mM Tris-EDTA pH 8.0, -300 mV.
The target in a further series is VEGF-165 (human, UniProt P15692-4 27-191). Description: single-molecule nanopore (carrier dimerization, biphasic Hill fit); apparent sandwich Kd; 200 pM carrier; Carriers (200 pM total) incubated with protein at 37 °C for 2 h; nanopore measurement in 100 mM KCl, 10 mM Tris-EDTA pH 8.0, -300 mV. The following applies: protein: recombinant; chain copies: 2; 2 identical carriers per protein dimer; first 12 nt pair with carrier overhang.
Chain of VEGF-165 (P15692 other isoform, or with tags, fused parts or gaps): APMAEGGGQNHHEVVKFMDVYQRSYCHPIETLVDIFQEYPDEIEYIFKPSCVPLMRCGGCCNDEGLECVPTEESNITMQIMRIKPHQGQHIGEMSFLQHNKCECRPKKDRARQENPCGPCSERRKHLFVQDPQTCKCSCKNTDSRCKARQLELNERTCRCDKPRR

B1: PDGF probe carrier (structured_DNA)
DNA: GGGCGGCGACCTTTTTTTCACAGGCTACGGCACGTAGAGCATCACCATGATCCTGTG
modifications: 5' phosphate, ligated to carrier
Consider B1, for which the Kd in the series with PDGF-BB was around 1.8 pM.

B2: HD1 carrier + HD22 carrier (thrombin probes 1 and 2) (structured_DNA)
DNA 1: GGGCGGCGACCTTTTTTTGGTTGGTGTGGTTGG
DNA 2: GGGCGGCGACCTTTTTTTAGTCCGTGGTAGGGCAGGTTGGGGTGACT
modifications: 5' phosphate on probes, ligated to carrier
For the molecule B2, the Kd in the series with human alpha-thrombin is around 9.1 pM.
On to GGGCGGCGACCTTTTTTTTGTGGGGGTGGACGGGCCGGGTAGA (structured_DNA, 5' phosphate, ligated to carrier) [VEGF probe (V7t1) carrier], for which the Kd with VEGF-165 is around 0.3 pM.
